The test system of assay [1] is RbAp48 binding to GST-H4-(1–48). As to the kind of experiment: Competition pulldown: GST-H4-(1–48) pulls down RbAp48 in absence and presence of full-length MTA1. Set-up: species or system human. The settings on record: GST-H4-(1–48) on glutathione beads, in vitro translated 35S-labeled RbAp48, absence and presence of full-length MTA1. The method, then:
The structural data provide clear evidence that histone H4 and MTA1 bind mutually exclusively to RbAp48. […] Competition-binding experiments were performed to assess whether full-length MTA1 might inhibit the interaction of RbAp48 with H3 or FOG1 peptides and to confirm that H4 and MTA1 bind mutually exclusively to RbAp48. GST-H4-(1–48) was expressed in bacteria, immobilized onto glutathione beads, and used to pull down RbAp48 in the absence and presence of full-length MTA1 (Fig. 7A). In a complementary experiment (Fig. 7B), in vitro translated FLAG-RbAp48 was immobilized on anti-FLAG beads and used to pull down MTA1 in the absence and presence of histone H4-(1–48).
FIGURE 7. […] A, pulldown showing the binding of in vitro translated ^35S-labeled RbAp48 to GST-histone H4-(1–48) (immobilized on glutathione beads) in the absence and presence of in vitro translated MTA1. B, pulldown showing the binding of in vitro translated ^35S-labeled MTA1 to FLAG-RbAp48 (immobilized on anti-FLAG beads) in the absence and presence of histone H4-(1–48). C, pulldown assays showing the effect of adding increasing amounts of FOG1-(1–15) peptide to a complex formed between in vitro translated ^35S-labeled FLAG-RbAp48 (immobilized on anti-FLAG beads) and in vitro translated ^35S-labeled full-length MTA1 or MTA1-(530–715). […]

The test system of assay [2] is Nurf55 WT. The assay can be described thus: GFP affinity purification with wild-type Nurf55 bait, mass spectrometry. The class given is cell-based, D. melanogaster (Dmel-2 cells). To be noted: anti-GFP nanobody beads, Dmel-2 cells, triplicate, lowest number of unique peptides listed. The source says:
(§1) Full-length Nurf55 (also known as p55 and CAF1) is the D. melanogaster homolog of RbAp46/p48. It was PCR-amplified and cloned into the pDONR221 vector via the BP (recombination and insertion of the att B sequence into the att P recombination site) reaction using standard Gateway Technology (Invitrogen) protocols. Five residues in this plasmid were mutated (L35Y, E361Q, D362N, E364Q, D365N) to create pDONR-Nurf55mut using the QuikChange Lightning Site-directed Mutagenesis kit (Agilent Technologies). The resulting wild-type and mutant clones were verified by sequencing. Primer sequences for the constructs are available on request. The Nurf55 genes were then transferred into destination vectors for the inducible expression of protein A- or GFP-tagged fusion proteins by the LR (insertion of sequences containing att L sites into destination att R sites) reaction according to the manufacturer's instructions.
(§2) D. melanogaster Dmel-2 cell lines stably expressing either tagged wild-type or mutant Nurf55 (containing the L35Y, E361Q, D362N, E364Q, and D365N mutations) were established. Affinity purification of protein A- and GFP-tagged bait and interacting proteins followed by mass spectrometry identification was carried out as previously reported ([39][–][41]).

For assay [3], the system named is Nurf55 WT. As to the kind of experiment: Protein A affinity purification with wild-type Nurf55 bait, mass spectrometry. The class given is cell-based, D. melanogaster (Dmel-2 cells). The settings on record: for Number of peptides identified, Nurf55 WT: IgG beads, Dmel-2 cells; for interaction with Nurf55: wild-type Nurf55.
Text: as §1, §2
(§3) Cell lines stably expressing protein A-tagged fusion proteins of either wild-type Nurf55 or the mutant (Nurf55mut) were generated. RbAp46 shares >90 and 85% sequence identity with RbAp48 and NuRF55, respectively. […] Cellular proteins that interact with protein A-tagged Nurf55/Nurf55mut were then isolated by affinity purification on IgG beads and identified by mass spectrometry as described previously ([39], [40]).

Assay [4] has as its system Nurf55 MUT. The assay can be described thus: Protein A affinity purification with mutant Nurf55 bait, mass spectrometry. The class given is cell-based, D. melanogaster (Dmel-2 cells). To be noted: for Number of peptides identified, Nurf55 MUT: IgG beads, Dmel-2 cells, mutant E361Q, D362N, E364Q, D365N, L35Y.
Text: as §1, §2, §3

Assay [5] relates to Nurf55 MUT. The assay can be described thus: GFP affinity purification with mutant Nurf55 bait, mass spectrometry. To be noted: anti-GFP nanobody beads, Dmel-2 cells, triplicate, lowest number of unique peptides listed, mutant E361Q, D362N, E364Q, D365N, L35Y. The class given is cell-based, D. melanogaster (Dmel-2 cells).
Text: as §1, §2

B1: full-length MTA1: in vitro translated full-length MTA1; human MTA1 Uniprot Q13330 (protein, UniProt Q13330 1-715, looked up)
chain: MAANMYRVGDYVYFENSSSNPYLIRRIEELNKTANGNVEAKVVCFYRRRDISSTLIALADKHATLSVCYKAGPGADNGEEGEIEEEMENPEMVDLPEKLKHQLRHRELFLSRQLESLPATHIRGKCSVTLLNETESLKSYLEREDFFFYSLVYDPQQKTLLADKGEIRVGNRYQADITDLLKEGEEDGRDQSRLETQVWEAHNPLTDKQIDQFLVVARSVGTFARALDCSSSVRQPSLHMSAAAASRDITLFHAMDTLHKNIYDISKAISALVPQGGPVLCRDEMEEWSASEANLFEEALEKYGKDFTDIQQDFLPWKSLTSIIEYYYMWKTTDRYVQQKRLKAAEAESKLKQVYIPNYNKPNPNQISVNNVKAGVVNGTGAPGQSPGAGRACESCYTTQSYQWYSWGPPNMQCRLCASCWTYWKKYGGLKMPTRLDGERPGPNRSNMSPHGLPARSSGSPKFAMKTRQAFYLHTTKLTRIARRLCREILRPWHAARHPYLPINSAAIKAECTARLPEASQSPLVLKQAVRKPLEAVLRYLETHPRPPKPDPVKSVSSVLSSLTPAKVAPVINNGSPTILGKRSYEQHNGVDGNMKKRLLMPSRGLANHGQARHMGPSRNLLLNGKSYPTKVRLIRGGSLPPVKRRRMNWIDAPDDVFYMATEETRKIRKLLSSSETKRAARRPYKPIALRQSQALPPRPPPPAPVNDEPIVIED
modifications: full-length
notes: in vitro translated full-length MTA1; human MTA1 Uniprot Q13330
For the molecule B1, the “competition of MTA1 with histone H4 for RbAp48” value in assay [1] is “compete for the same binding surface on RbAp48”.

B2: Rpd3: known subunit of the D. melanogaster NuRD complex, Rpd3 (dHDAC) (protein)
chain: MQSHSKKRVCYYYDSDIGNYYYGQGHPMKPHRIRMTHNLLLNYGLYRKMEIYRPHKATADEMTKFHSDEYVRFLRSIRPDNMSEYNKQMQRFNVGEDCPVFDGLYEFCQLSAGGSVAAAVKLNKQASEICINWGGGLHHAKKSEASGFCYVNDIVLGILELLKYHQRVLYIDIDVHHGDGVEEAFYTTDRVMTVSFHKYGEYFPGTGDLRDIGAGKGKYYAVNIPLRDGMDDDAYESIFVPIISKVMETFQPAAVVLQCGADSLTGDRLGCFNLTVKGHGKCVEFVKKYNLPFLMVGGGGYTIRNVSRCWTYETSVALAVEIANELPYNDYFEYFGPDFKLHISPSNMTNQNTSEYLEKIKNRLFENLRMLPHAPGVQIQAIPEDAINDESDDEDKVDKDDRLPQSDKDKRIVPENEYSDSEDEGEGGRRDNRSYKGQRKRPRLDKDTNSNKASSETSSEIKDEKEKGDGADGEESTASNTNSNNNSNNKSDNDAGATANAGSGSGSGSGAGAKGAKENNI
For B2, the “Number of peptides identified, Nurf55 WT” value in the assay with Nurf55 WT [2] is given as 36; in the assay on Nurf55 WT [3], 8. In addition, the “interaction with Nurf55” value in the assay on Nurf55 WT [3] is given as “pulled down by Nurf55”. For the same molecule, the “Number of peptides identified, Nurf55 MUT” value (shortened to “Number … Nurf55 MUT”) in the assay with Nurf55 MUT [4] is recorded as 0; in the assay with Nurf55 MUT [5], 9. The “interaction with Nurf55mut” value in the assay on Nurf55 MUT [4] is “not observed”.

B3: MTA-like: known subunit of the D. melanogaster NuRD complex (protein)
chain: MATNMYRVGDYVYVETTPNSPYLIRRIEELNKNQTGNVEAKVMCFYRRRDLPNPLVQLADKHQLATAEDSPLATKLKKTWLRTPVSEEQAAQAVLDPSIAALDEERTSPTQTSGGGGSATGNSGSNSSGTSNNNSSSTAIGGGAGGSGGAGGDAEKGEALTSKQRYQIKHRELFLSRQVESIPATQIRGKCSVTLLNETESLQSYLNKDDTFFYCLVFDPNQKTLLADKGEIRVGSRYQCDIPAKLKDTATDDRKLEELESLVWTPEHSLTDRKIDQFLVVSRSIGTFARALDCSSSVKQPSLHMSAAAASRDITLFHAMNILHKHEYSIEESMSSLVPSTGPVLCRDEIEDWSASEANLFEEALEKYGKDFNDIRQDFLPWKTLKQIIEYYYMWKTTDRYVQQKRVKAVEAELKLKQVYIPQYNNNGKGNGTSTKAGGGIYNGTTNGSTDLSSNGKPCESCGTTKSSQWNSVSSGHSTSRLCLSCWEYWRRYGSMKSATKGDAGEGDAKKKSSSAASTPTATLAGLATTPTAVVDLNDDEKISDLTNRQLHRCSIVNCGKEFKLKTHLARHYAQAHGIAISSGSPRPIMKTRTAFYLHTNPMTRVARAICRSIVKPKKAARQSAYAINAMLVKQEFTNRISGKSQAEIKKLLLLKPKDRGSVTKIANRLGAPGSGPHEWLVLTPKDKMPLPAVVSFPKPPKAPDGSLVYDRVPNKSPDVVAVPADKELTIIPTQATSTIRKRAHEDQQLNGTEVTIVPSGPPAKRPNKDPMPSHCPSPEQFAAMMAASGQPLSRHHLNGKQKIAQMARGGNGRKQVISWMDAPDDVYFRANDTHKKTRKILSAVDLRRAARKPWRTLPIKPAAPEPSSRPIESQIVILD
B3: the “Number of peptides identified, Nurf55 WT” value in the assay on Nurf55 WT [2] was determined as 79. Moreover, in the assay on Nurf55 WT [3], the “Number of peptides identified, Nurf55 WT” value was determined as 57 and the “interaction with Nurf55” value was “pulled down by Nurf55”. In addition, in the assay with Nurf55 MUT [4], the “Number … Nurf55 MUT” value was 0 and the “interaction with Nurf55mut” value was “not observed”. The “Number … Nurf55 MUT” value in the assay with Nurf55 MUT [5] was determined as 6.

The record behind these values is publication PMC4139204, “Insight into the Architecture of the NuRD Complex” (The Journal of Biological Chemistry, 2014).
